Measured values reported in the supplement of paper PMC10724198.
± gives the standard deviation of the averaged measurements.

The sequences below were run on Saccharomyces cerevisiae (assay: protein stability index of tFT-peptide fusion (C-terminal peptide) (PSI (0-1 scale)); higher = more stable (slower turnover)). Conditions: genetic background: wild type; temperature: 30 C.
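Further: PSI is a weighted mean of sequencing reads over stability bins, variants kept only with over 10 reads, mCherry proximal and sfGFP distal, peptide attached via GGGS linker.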

PLYHPSESYNPA and FLFCWGCCRLFW are within error of each other in protein stability index: 0.678 ± 0.016 for the first, 0.581 ± 0.1 for the second.

EDSGRPGRPSTH and YKNKKKKKNNKK are within error of each other in protein stability index: 0.662 ± 0.048 for the first, 0.661 ± 0.019 for the second.

SSHLILTVAPSA and GVESQIHISTYE are within error of each other in protein stability index: 0.6515 ± 0.0045 for the first, 0.686 ± 0.049 for the second.

SSSPLPPPSPPP and GVFAGGLWCVGF are within error of each other in protein stability index: 0.673 ± 0.032 for the first, 0.657 ± 0.087 for the second.

Going from PPPSPPLPPFSL to SDQPTWTAQTSN, the protein stability index rises from 0.7056 ± 0.00078 to 0.783 ± 0.025.

SPPRSPPTFPPC and TRGAGAKYSSVR are within error of each other in protein stability index: 0.704 ± 0.063 for the first, 0.721 ± 0.019 for the second.

VPGIGGGVSVRG and GPKGVTRCGATR are within error of each other in protein stability index: 0.612 ± 0.14 for the first, 0.721 ± 0.12 for the second.

First: RKDKKKKGSKEE
Second: SSPLSSPLSTAP
The protein stability index of the first is higher: 0.69 ± 0.046 for the first, 0.622 ± 0.018 for the second.

WGCGVRWGVDWA and LWGFVEAIGSVL are within error of each other in protein stability index: 0.732 ± 0.026 for the first, 0.705 ± 0.18 for the second.

PPPPLCPPPLSF and SPAPSFLPLTPS are within error of each other in protein stability index: 0.638 ± 0.016 for the first, 0.656 ± 0.014 for the second.

SPRIDFLLPCSS and FSLCFSSFSLFP are within error of each other in protein stability index: 0.647 ± 0.032 for the first, 0.676 ± 0.016 for the second.

KIGYTISGFVIS and FQAERTGVTRAR are within error of each other in protein stability index: 0.707 ± 0.054 for the first, 0.666 ± 0.0078 for the second.

ERRGSLSWPIPP and VVVQSGSSYKEY are within error of each other in protein stability index: 0.722 ± 0.036 for the first, 0.7 ± 0.11 for the second.

PPPTDSQTTWHP and WKSSRSRCIHGE are within error of each other in protein stability index: 0.705 ± 0.018 for the first, 0.707 ± 0.026 for the second.

Compared with KIDKKNKKKKRN, VWCWCGWGVWGL is lower in protein stability index: 0.728 ± 0.023 for the first, 0.629 ± 0.063 for the second.

Going from INPLAHCSISRS to SVGGVGGAVGGG, the protein stability index falls from 0.7086 ± 0.0066 to 0.663 ± 0.014.

HSRALLSVLPPH and PPPGCRPSPPLP are within error of each other in protein stability index: 0.7023 ± 0.0057 for the first, 0.683 ± 0.069 for the second.

NGWGKWTKTVCQ and KKRVSKETDKVK are within error of each other in protein stability index: 0.646 ± 0.02 for the first, 0.693 ± 0.027 for the second.

SLGCIPLVDFLR and GGGGARRLAVGQ are within error of each other in protein stability index: 0.668 ± 0.0072 for the first, 0.678 ± 0.015 for the second.

First: PLPSVPESPAPP
Second: VEWGGDGVFWTG
The protein stability index of the first is lower: 0.693 ± 0.045 for the first, 0.8 ± 0.023 for the second.

First: APPRPPTLHRPH
Second: RFVGVGWRVEGG
The protein stability index of the first is higher: 0.721 ± 0.0085 for the first, 0.676 ± 0.019 for the second.

HGLPSFANPGNF and GDSGVWGPMGLW are within error of each other in protein stability index: 0.716 ± 0.0095 for the first, 0.732 ± 0.033 for the second.

SCNILPRFSPLL and SEGSRGYLLEIQ are within error of each other in protein stability index: 0.723 ± 0.033 for the first, 0.69 ± 0.029 for the second.

Compared with PLHSLPSRTPPS, PPPPPRPPPPAP is lower in protein stability index: 0.7088 ± 0.006 for the first, 0.5949 ± 0.0051 for the second.

TTTFPFGRLVLS and RNRAGHVGCYGL are within error of each other in protein stability index: 0.68 ± 0.028 for the first, 0.6989 ± 0.0066 for the second.

Going from PPPPPLSPPPRP to LRLLLLVLPTCF, the protein stability index falls from 0.68631 ± 0.00031 to 0.527 ± 0.02.

PPSMRQRKRSGP and SLYQPLSPTPPE are within error of each other in protein stability index: 0.746 ± 0.028 for the first, 0.74 ± 0.064 for the second.

QTGGPDPSGPPK and FQHFGAPPTWHE are within error of each other in protein stability index: 0.693 ± 0.03 for the first, 0.742 ± 0.093 for the second.

THHSDLHPRTAP and SRHPSFPLPMPL are within error of each other in protein stability index: 0.697 ± 0.033 for the first, 0.746 ± 0.086 for the second.

PRFPQPSTLLPP and PPLNPHPPAPTP are within error of each other in protein stability index: 0.698 ± 0.021 for the first, 0.724 ± 0.032 for the second.

Going from AAVSSDASVLRF to DFVGCSGRGSFV, the protein stability index rises from 0.628 ± 0.027 to 0.72 ± 0.023.

SGYSTRPLSSRS and RTAGQRLIRVNR are within error of each other in protein stability index: 0.723 ± 0.041 for the first, 0.744 ± 0.075 for the second.

PPPPPPPPPCHL and SGVGCGRSRWVW are within error of each other in protein stability index: 0.644 ± 0.078 for the first, 0.626 ± 0.029 for the second.

Compared with CPGVLVLMCGRP, PPPSPALPLPPY is higher in protein stability index: 0.589 ± 0.009 for the first, 0.712 ± 0.019 for the second.

Going from RPEAVARIFDDE to GLRSDIGQVTHP, the protein stability index falls from 0.724 ± 0.013 to 0.635 ± 0.066.

Compared with ECYKKFVCSCCT, RPPPAAPLHITS is higher in protein stability index: 0.515 ± 0.0086 for the first, 0.714 for the second.

AAARTGIATLRT showed a protein stability index of 0.691 ± 0.01.
